What was measured:
Assay in all cases: method not stated for Table 5; Fc variant against Fcγ receptor
[1] = target: FcγRIIa-R131 (human) (UniProt P12318)
[2] = target: FcγRIIb (human) (UniProt P31994)
[3] = target: FcγRIIa-H131 (human) (UniProt P12318)
Chain of FcγRIIa-H131 (human) (P12318 34-218 limits assumed): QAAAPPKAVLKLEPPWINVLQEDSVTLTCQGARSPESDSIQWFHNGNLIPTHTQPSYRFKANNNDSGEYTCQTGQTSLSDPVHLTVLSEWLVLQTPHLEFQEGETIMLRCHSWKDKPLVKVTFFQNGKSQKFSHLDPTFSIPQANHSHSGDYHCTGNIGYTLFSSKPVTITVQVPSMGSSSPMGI

Chain of FcγRIIb (human) (P31994 43-217 limits assumed): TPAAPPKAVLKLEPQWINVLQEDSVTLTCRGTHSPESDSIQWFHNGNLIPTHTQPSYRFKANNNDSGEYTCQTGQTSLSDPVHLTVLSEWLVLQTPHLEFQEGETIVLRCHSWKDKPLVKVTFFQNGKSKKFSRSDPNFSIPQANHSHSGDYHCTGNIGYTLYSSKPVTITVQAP
Chain of FcγRIIa-R131 (human) (P12318 34-218 H167R limits assumed): as the sequence (P12318 34-218 limits assumed) above, with H134R counted along it

Row | Kd [1] | Kd [2] | Kd [3] | Substance
1 | 850 nM | 3900 nM | 530 nM | IgG1f Fc sequence variant (Table 5) (antibody)
2 | – | 950 nM | – | P238D Fc sequence variant (Table 5) (antibody)
3 | 22 nM | 98 nM | 520 nM | SE Fc sequence variant (Table 5) (antibody)
4 | 2 nM | – | – | SELF Fc sequence variant (Table 5) (antibody)
